Experimental data published in the Human Domainome abundance scans (Beltran et al. 2025).

B1: Cullin-9, residues 2234 to 2275; numbered along this chain, Q8IWT3 (parent)
chain: KRCPSCQAPIEKNEGCLHMTCAKCNHGFCWRCLKSWKPNHKD

Variants of: B1
Assay: abundance fitness (aPCA) (normalised: wild type 0, dead -1); higher = more abundant; growth selection in yeast, the domain comes from the species named
Details: Homo sapiens

Abundance fitness of substitutions, site by site:
K1: G -0.815; H -0.436; I 0.164; L -0.493; M -0.162; Q -0.691; R -0.948; S -0.756; T -0.377; V -0.46; W -1.42; Y 0.038
R2: A 0.084; C 0.07; E 0.175; G 0.204; H 0.104; I 1.09; K 0.123; L 0.227; M 0.559; N 0.571; P -0.209; S 0.077; T 0.147; V -0.2; W -0.279; Y 0.242
C3: A -1.03; D -0.018; E -0.474; F -0.416; G -0.485; H -0.249; I 0.698; K -0.658; M -0.144; N 0.169; P -0.945; Q -1.07; R -0.751; S -0.303; T -0.435; V -0.348; W -1.4; Y -0.342
P4: A 0.098; C 0.182; D -1.47; E -1.27; F 0.434; G 0.056; H -0.022; I 0.013; K -1.44; L 0.065; M -0.079; N -1.15; Q -0.351; R -0.41; S -0.129; T 0.002; V 0.117; W -0.147; Y 0.231
S5: A 0.462; C 0.137; D -0.147; E 0.496; G 0.56; H -0.336; I -0.142; K 0.489; L -0.121; M 0.395; P -0.401; Q 0.31; T 0.224; V 0.259; W 0.313; Y -0.291
C6: A -0.029; D -0.091; E -0.304; F -0.846; G -0.126; H -0.222; I -0.419; K -0.515; L -0.295; M -0.447; N 0.056; P -0.639; Q -0.587; R -0.612; S -0.511; T -0.347; V -0.383; W -0.615; Y -0.518
Q7: A -0.064; C -0.025; D 0.538; E 0.089; G 0.258; I -0.346; P -0.18; S -0.406; T -0.073; V -0.198
A8: C -0.213; D -0.284; F -0.01; G 0.023; I -0.341; K -0.006; L -0.256; M -0.155; N 0.305; P -0.555; Q 0.014; R -0.153; S -0.058; T -0.027; V -0.231; Y -0.005
P9: A -0.198; C -0.074; D -0.267; E 0.051; F -0.373; H -0.291; I -0.53; K -0.349; L -0.39; M 0.056; N -0.026; Q 0.014; R -0.048; S -0.347; T -0.107; V -0.277; W 0.335; Y -0.265
I10: A -0.193; D -0.011; E 0.059; G -0.303; H -0.588; K -0.598; N -0.534; P -0.536; Q -0.231; R -0.534; S -0.233; T -0.083; V -0.138; W -0.555
E11: A -0.185; C -0.487; D -0.137; G -0.34; H -0.138; K -0.27; L -0.318; M -0.383; P -0.309
